Here are results for two molecules from patent US20240092898A1.

One test concerns the target CD33 (human) (UniProt P20138). Put plainly: SPR. For orientation: In SPR one partner is held on a chip, and binding of the other changes the refractive index at the surface.
In test [1] the target is CD7 on cells (human) (UniProt P09564). Put plainly: flow cytometry on cells; cell line and unit not stated. Background: Flow cytometry measures light scatter and fluorescence of single cells or particles in a stream.
The target is the same in test [2]. The experiment in a line: flow cytometry on cells; ratio to 7-PP-1 WT.

Sequence of CD7 on cells (human) (P09564 26-240): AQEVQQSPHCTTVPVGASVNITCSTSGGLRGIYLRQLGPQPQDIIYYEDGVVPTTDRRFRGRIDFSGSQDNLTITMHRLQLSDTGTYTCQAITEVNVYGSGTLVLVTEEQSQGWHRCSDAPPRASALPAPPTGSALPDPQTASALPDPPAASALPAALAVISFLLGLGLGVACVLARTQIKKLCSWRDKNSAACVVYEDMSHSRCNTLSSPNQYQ
Sequence of CD33 (human) (P20138 18-259 limits assumed): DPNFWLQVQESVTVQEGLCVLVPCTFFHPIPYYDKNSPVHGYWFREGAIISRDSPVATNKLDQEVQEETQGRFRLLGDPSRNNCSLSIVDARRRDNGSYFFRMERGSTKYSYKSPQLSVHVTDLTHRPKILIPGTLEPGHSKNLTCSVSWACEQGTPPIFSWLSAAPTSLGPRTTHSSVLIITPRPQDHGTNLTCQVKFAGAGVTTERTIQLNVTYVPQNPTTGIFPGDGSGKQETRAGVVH

B1: CD33-PP-1-WT (Fab, from another filing, V domains shown)
VH: EVQLVQSGAEVKKPGSSVKVSCKASGYTITDSNIHWVRQAPGQSLEWIGYIYPYNGGTDYNQKFKNRATLTVDNPTNTAYMELSSLRSEDTAFYYCVNGNPWLAYWGQGTLVTVSS
VL: DIQLTQSPSTLSASVGDRVTIICRASESLDNYGIRFLTWFQQKPGKAPKLLMYAASNQGSGVPSRFSGSGSGTEFTLTISSLQPDDFATYYCQQTKEVPWSFGQGTKLEIK
For orientation: Kd means the constant that tells how readily two partners part at equilibrium. A lower Kd goes with higher affinity. Turning to B1, in the test with CD33 (human), the dissociation constant (Kd) came out at 1.36 nM.

B2: CD7-PP-7 (Fab, V domains shown)
VH: QVQLQESGAELVKPGASVKLSCKASGYTFTSYWMHWVKQRPGQGLEWIGKINPSNGGTNYNEKFKSKATLTVDKSSSTAYMQLSSLTSEDSAVYYCARGGVYYDLYYAALDYWGQGTTVTVSS
VL: DIELTQSPATLSVTPGDSVSLSCRASQSISNNLHWYQQKSHESPRLLIKSASQSISGIPSRFSGSGSGTDFTLSINSVETEDFGMYFCQQSNSWPYTFGGGTKLEIKR
With B2, in the test with CD7 on cells (human) [1], the FACS binding stood at 267. Moreover, the FACS fold reduction compared to PP WT with CD7 on cells (human) [2] was 502 fold.
